The test system of this data set is OC[C@H]1O[C@@H](n2cnc3c(O)ncnc32)[C@H](O)[C@@H]1O. Kind of data set: Michaelis-Menten kinetics, xanthine oxidase-coupled assay (Km). The class given is biochemical, Plasmodium falciparum. The following applies: phosphate catalytic site.

A word on the Km: it is the substrate concentration at which the rate is half of its maximum. “Plasmodium falciparum purine nucleoside phosphorylase (PfPNP), native subunits (natPNPfus) (Plasmodium falciparum 3D7)”: the Km amounted to 5.4 µM.

(Values after publication PMC7949152, “A resistant mutant of Plasmodium falciparum purine nucleoside phosphorylase uses wild-type neighbors to maintain parasite survival” (The Journal of Biological Chemistry, 2021).)
